Laboratory results: publication PMC9482650, “Quantitative fragmentomics allow affinity mapping of interactomes” (Nature Communications, 2022)

Assays:
Test in all cases: holdup assay
Design in all cases: key: below the threshold = too weak to quantify, mostly under pKd 3.1 to 4
Details in all cases: plain residues with an end cap or a label only (N-terminal biotin on a linker: ado-ado)
DLG3_1, Q92796 = target: T1, DLG3_1, Q92796
T1 sequence (Q92796 125-227, limits assumed, looked up): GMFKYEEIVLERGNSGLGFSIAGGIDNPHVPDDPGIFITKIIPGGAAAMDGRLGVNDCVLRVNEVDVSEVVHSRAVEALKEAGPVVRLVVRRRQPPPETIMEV

NHERF3_1, Q5T2W1 = target: T2, NHERF3_1, Q5T2W1
T2 sequence (Q5T2W1 4-100, limits assumed, looked up): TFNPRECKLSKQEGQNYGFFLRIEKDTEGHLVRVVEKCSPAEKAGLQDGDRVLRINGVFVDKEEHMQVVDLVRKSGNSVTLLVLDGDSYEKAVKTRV

DLG3_2, Q92796 = target: T3, DLG3_2, Q92796
T3 sequence (Q92796 221-321, limits assumed, looked up): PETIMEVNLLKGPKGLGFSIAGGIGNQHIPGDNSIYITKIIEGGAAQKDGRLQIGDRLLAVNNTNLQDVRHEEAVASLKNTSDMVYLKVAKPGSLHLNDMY

GOPC, Q9HD26 = target: GOPC, Q9HD26
CASK, O14936 = target: CASK, O14936
Chain of CASK, O14936 (O14936 487-570): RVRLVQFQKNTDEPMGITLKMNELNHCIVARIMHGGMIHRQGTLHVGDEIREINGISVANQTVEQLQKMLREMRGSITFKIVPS

LIMK2, P53671 = target: LIMK2, P53671
Chain of LIMK2, P53671 (P53671 143-248): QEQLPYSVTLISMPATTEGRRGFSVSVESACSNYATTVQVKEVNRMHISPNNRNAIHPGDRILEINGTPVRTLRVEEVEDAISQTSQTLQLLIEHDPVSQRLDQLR

RHPN1, Q8TCX5 = target: T4, RHPN1, Q8TCX5
T4 sequence (Q8TCX5 508-602, limits assumed, looked up): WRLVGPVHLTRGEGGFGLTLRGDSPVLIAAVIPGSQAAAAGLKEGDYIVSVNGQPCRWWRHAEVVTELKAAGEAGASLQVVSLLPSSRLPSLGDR

GRID2IP_1, A4D2P6 = target: GRID2IP_1, A4D2P6
Chain of GRID2IP_1, A4D2P6 (A4D2P6 1-87): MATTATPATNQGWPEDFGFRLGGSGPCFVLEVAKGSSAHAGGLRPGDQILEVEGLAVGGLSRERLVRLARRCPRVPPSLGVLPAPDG

PDZRN4_1, Q6ZMN7 = target: PDZRN4_1, Q6ZMN7
Chain of PDZRN4_1, Q6ZMN7 (Q6ZMN7 213-318): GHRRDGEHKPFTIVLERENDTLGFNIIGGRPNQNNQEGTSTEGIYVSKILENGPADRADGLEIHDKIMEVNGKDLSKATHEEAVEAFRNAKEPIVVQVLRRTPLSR

FRMPD3, Q5JV73 = target: FRMPD3, Q5JV73
Chain of FRMPD3, Q5JV73 (Q5JV73 12-100): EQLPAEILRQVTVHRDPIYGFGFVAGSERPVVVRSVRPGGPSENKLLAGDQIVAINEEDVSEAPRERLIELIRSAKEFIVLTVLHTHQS

MAGI1_2, Q96QZ7 = target: MAGI1_2, Q96QZ7
Chain of MAGI1_2, Q96QZ7 (Q96QZ7 456-580): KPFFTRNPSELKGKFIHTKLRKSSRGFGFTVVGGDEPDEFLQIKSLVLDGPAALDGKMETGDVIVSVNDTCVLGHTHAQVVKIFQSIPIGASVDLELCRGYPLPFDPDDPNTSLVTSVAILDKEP

SHANK1, Q9Y566 = target: T5, SHANK1, Q9Y566
T5 sequence (Q9Y566 658-767, limits assumed, looked up): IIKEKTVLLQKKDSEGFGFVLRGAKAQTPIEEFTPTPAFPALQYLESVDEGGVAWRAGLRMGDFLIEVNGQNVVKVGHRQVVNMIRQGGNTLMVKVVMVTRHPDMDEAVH

TJP3_3, O95049 = target: T6, TJP3_3, O95049
T6 sequence (O95049 375-456, limits assumed, looked up): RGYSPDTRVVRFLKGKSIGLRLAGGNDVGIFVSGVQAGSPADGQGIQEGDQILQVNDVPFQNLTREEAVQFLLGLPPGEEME

TX1BP3, O14907 = target: T7, TX1BP3, O14907
T7 sequence (O14907 10-122, limits assumed, looked up): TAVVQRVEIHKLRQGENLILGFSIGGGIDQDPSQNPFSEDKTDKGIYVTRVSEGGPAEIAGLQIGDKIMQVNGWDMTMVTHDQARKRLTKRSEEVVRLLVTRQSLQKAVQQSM

NHERF4_1, Q86UT5-2 = target: NHERF4_1, Q86UT5-2
Chain of NHERF4_1, Q86UT5-2 (Q86UT5 other isoform, or with tags, fused parts or gaps): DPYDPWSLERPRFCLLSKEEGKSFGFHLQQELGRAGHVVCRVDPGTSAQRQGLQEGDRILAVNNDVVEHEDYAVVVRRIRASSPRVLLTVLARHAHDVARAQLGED

SNTA1, Q13424 = target: T8, SNTA1, Q13424
T8 sequence (Q13424 82-180, limits assumed, looked up): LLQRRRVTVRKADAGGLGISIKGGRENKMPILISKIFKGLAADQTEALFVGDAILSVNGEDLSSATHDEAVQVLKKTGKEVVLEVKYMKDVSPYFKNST

MPDZ_10, O75970 = target: T9, MPDZ_10, O75970
T9 sequence (O75970 1624-1722, limits assumed, looked up): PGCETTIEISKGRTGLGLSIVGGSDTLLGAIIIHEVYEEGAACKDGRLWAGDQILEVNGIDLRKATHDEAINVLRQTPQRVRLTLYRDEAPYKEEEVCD

SNTG1, Q9NSN8 = target: T10, SNTG1, Q9NSN8
T10 sequence (Q9NSN8 52-150, limits assumed, looked up): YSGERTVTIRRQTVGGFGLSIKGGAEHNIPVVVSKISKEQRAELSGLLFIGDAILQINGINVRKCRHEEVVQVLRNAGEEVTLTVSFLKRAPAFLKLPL

APBA2_1, Q99767 = target: T11, APBA2_1, Q99767
T11 sequence (Q99767 563-664, limits assumed, looked up): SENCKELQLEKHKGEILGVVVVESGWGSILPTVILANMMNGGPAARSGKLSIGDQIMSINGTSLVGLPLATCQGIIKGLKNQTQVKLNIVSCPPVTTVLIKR

MAST2, Q6P0Q8 = target: MAST2, Q6P0Q8
Chain of MAST2, Q6P0Q8 (Q6P0Q8 1099-1202): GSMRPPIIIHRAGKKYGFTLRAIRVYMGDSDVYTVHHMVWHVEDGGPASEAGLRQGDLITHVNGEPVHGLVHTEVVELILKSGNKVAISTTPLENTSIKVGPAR

ARHGEF12, Q9NZN5-2 = target: ARHGEF12, Q9NZN5-2
Chain of ARHGEF12, Q9NZN5-2 (Q9NZN5 other isoform, or with tags, fused parts or gaps): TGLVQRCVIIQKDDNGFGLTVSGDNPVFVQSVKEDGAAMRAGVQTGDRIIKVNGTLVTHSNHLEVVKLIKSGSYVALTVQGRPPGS

GRASP, Q7Z6J2 = target: GRASP, Q7Z6J2
Chain of GRASP, Q7Z6J2 (Q7Z6J2 96-193): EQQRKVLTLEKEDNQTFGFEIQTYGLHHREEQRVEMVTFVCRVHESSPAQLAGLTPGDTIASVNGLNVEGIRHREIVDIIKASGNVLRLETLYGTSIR

SYNJ2BP, P57105 = target: T12, SYNJ2BP, P57105
T12 sequence (P57105 8-110, limits assumed, looked up): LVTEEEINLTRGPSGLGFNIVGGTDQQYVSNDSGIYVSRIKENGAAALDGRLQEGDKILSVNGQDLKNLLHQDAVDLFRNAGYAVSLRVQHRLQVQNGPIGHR

SCRIB_1, Q14160 = target: SCRIB_1, Q14160
Chain of SCRIB_1, Q14160 (Q14160 718-814): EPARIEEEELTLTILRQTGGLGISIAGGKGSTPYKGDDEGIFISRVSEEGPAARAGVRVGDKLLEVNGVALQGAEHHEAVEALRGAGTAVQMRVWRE

IL16_4, Q14005 = target: IL16_4, Q14005
Chain of IL16_4, Q14005 (Q14005 1229-1329): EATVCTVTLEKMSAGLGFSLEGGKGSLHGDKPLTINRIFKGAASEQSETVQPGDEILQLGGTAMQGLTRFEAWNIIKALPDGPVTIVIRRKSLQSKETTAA

DLG5_1, Q8TDM6 = target: DLG5_1, Q8TDM6
Chain of DLG5_1, Q8TDM6 (Q8TDM6 617-713): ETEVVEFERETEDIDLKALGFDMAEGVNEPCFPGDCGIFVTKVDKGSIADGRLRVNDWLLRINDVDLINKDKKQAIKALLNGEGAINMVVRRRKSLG

With ADRDHASDQL [CTBP1, Q13363] the pKd (DLG3_1, Q92796) was “below the threshold”, the pKd (NHERF3_1, Q5T2W1) was 4.5 and the pKd (DLG3_2, Q92796) was “below the threshold”. For the same binder, the pKd (GOPC, Q9HD26) was “below the threshold”, the pKd (CASK, O14936) was “below the threshold” and the pKd (LIMK2, P53671) was “below the threshold”. For the same binder, the pKd (RHPN1, Q8TCX5) was “below the threshold”, the pKd (GRID2IP_1, A4D2P6) was “below the threshold” and the pKd (PDZRN4_1, Q6ZMN7) was “below the threshold”. The pKd (FRMPD3, Q5JV73) was “below the threshold”, the pKd (MAGI1_2, Q96QZ7) was “below the threshold” and the pKd (SHANK1, Q9Y566) was “below the threshold”. The pKd (TJP3_3, O95049) was “below the threshold”, the pKd (TX1BP3, O14907) was “below the threshold” and the pKd (NHERF4_1, Q86UT5-2) was 4.05. For the same binder, the pKd (SNTA1, Q13424) was “below the threshold”, the pKd (MPDZ_10, O75970) was “below the threshold” and the pKd (SNTG1, Q9NSN8) was “below the threshold”. The pKd (APBA2_1, Q99767) was “below the threshold”, the pKd (MAST2, Q6P0Q8) was “below the threshold” and the pKd (ARHGEF12, Q9NZN5-2) was “below the threshold”. The pKd (GRASP, Q7Z6J2) was “below the threshold”, the pKd (SYNJ2BP, P57105) was “below the threshold” and the pKd (SCRIB_1, Q14160) was “below the threshold”. For the same binder, the pKd (IL16_4, Q14005) was “below the threshold” and the pKd (DLG5_1, Q8TDM6) was “below the threshold”.
